Data as given in article PMC3498381, “Isolated Toll-like Receptor Transmembrane Domains Are Capable of Oligomerization” (PLoS ONE, 2012).
No end group written: not given here.

B2: TLR1 transmembrane domain (ToxR chimera) (domain or fragment)
chain: GNRASITLLIVTIVATMLVLAVTVTSLCSYLGSLIN
notes: flank encoded by the reading frame of the plasmid construct; Toll-like receptor 1 transmembrane domain, human, as identified by hydrophobic analysis; One molecule for the ToxR and the ToxR* form of this TMD; also called TLR1 TMD; source: E. coli FHK12, transformed with pTox7 or pTox6 plasmid, in the cells' membrane
B3: TLR6 transmembrane domain (ToxR chimera) (domain or fragment)
chain: GNRASITLLIVTIGATMLVLAVTVTSLCIYLGSLIN
notes: flank encoded by the reading frame of the plasmid construct; Toll-like receptor 6 transmembrane domain, human, as identified by hydrophobic analysis; One molecule for the ToxR and the ToxR* form of this TMD; also called TLR6 TMD; source: E. coli FHK12, transformed with pTox7 or pTox6 plasmid, in the cells' membrane
B4: TLR2 transmembrane domain (ToxR chimera) (domain or fragment)
chain: GNRASALVSGMCCALFLLILLTGVLCGSLIN
notes: flank encoded by the reading frame of the plasmid construct; Toll-like receptor 2 transmembrane domain, human, as identified by hydrophobic analysis; One molecule for the ToxR and the ToxR* form of this TMD; also called TLR2 TMD; wild type TLR2 TMD; source: E. coli FHK12, transformed with pTox7 or pTox6 plasmid, in the cells' membrane

What was measured:
[1] = system: homotypic TMD-TMD interaction (ToxR / ctx promoter / β-galactosidase reporter in FHK12 E. coli); assay: Homotypic ToxR reporter assay (β-galactosidase); format: cell-based; settings: homotypic ToxR assay, compared with wild type TLR2 TMD (Fig. 7A)
Description: . Various plasmid constructs for this assay make it possible to monitor both homotypic and heterotypic interactions that are driven by TMD-TMD association (Fig. S1).
We first investigated homotypic interactions because the majority of the TLR family members function as homodimers. […] This ΔTM construct consists of the same maltose binding protein and ToxR domain, but lacks a TMD for proper membrane insertion (Fig. S2). Statistical analysis using the Tukey-Kramer test was performed to analyze any significant differences between all possible pairs of average interaction potentials (Table S2). […] Among the TLRs, no discernable differences in grouping based on statistical analysis at p = 0.05 were indicated as all receptors belonged to multiple groups, except for TLR1, which with the lowest interaction potential among the family of receptors only existed in one group (Table S1).
Figure 2 Toll-like Receptor Transmembrane Domain Homotypic Interactions. (A) The ToxR assay was used to study homotypic interactions of the TLR TMDs. A chimeric protein expressing the TMD of interest was monitored through β-galactosidase activity. In all cases, we saw that the TLRs have interaction potential solely from TMD-TMD interactions. Each TLR TMD interaction measurement analysis was performed on 3 technical replicates with >6 measurements for each replicate. Error bars depict the standard error of the mean (n – Table S1). Western blots staining for MBP were performed to monitor expression levels of the constructs – (B) chimeric maltose binding protein expression, (C) endogenous maltose binding protein expression. All samples were normalized to the GpA signal and expression levels.
Briefly, the ToxR plasmids containing the TMD of interest (200 ng) were transformed into chemically competent FHK12 E. coli (200 µL) by incubating on ice for 30 min, heat shock at 42°C for 90 s, incubation on ice for 2 min, and addition of SOC media (800 µL) followed by incubation with shaking for 1 h at 37°C. This transformation mixture (50 µL) was then spread on LB agar plates containing cholaramphenicol (30 µg/mL) and ampicillin (100 µg/mL) and grown overnight at 37°C. Single colonies were selected from the plates in triplicate and added to 5 mL of LB media containing cholaramphenicol (30 µg/mL), ampicillin (100 µg/mL), and arabinose (0.0025%). These cultures were incubated overnight (16–20 h) with shaking at 37°C. The β-galactosidase activity was monitored using a Beckman Coulter DTX 880 plate-reader. First 5 µL of each culture was plated >6 times in a clear 96-well flat bottom culture plate (Sarstedt) containing 100 µL of Z-buffer/chloroform (1% β-mercaptoethanol, 10% chloroform, 89% Z buffer: […], 10 mM potassium chloride, 1 mM magnesium sulfate, pH 7.0). The cell densities of each well were recorded by measuring the OD595. Bacteria were lysed by the addition of 50 µL Z-buffer/SDS (1.6% sodium dodecyl sulfate w/v in Z-buffer) and shaking at 28°C for 10 min. Enzymatic activity was measured by adding 50 µL of Z-buffer/ortho-Nitrophenyl-β-[…] (ONPG) (0.4% ONPG w/v in Z-buffer) and monitoring the reaction at 405 nm for a period of 20 min at 30 s intervals. Miller units were calculated using the equation: [drawing 1]
Western blotting was performed with antiserum recognizing the maltose-binding protein moiety of the constructs (Abcam). Data were normalized to GpA Miller Units and protein expression levels using ImageJ (NIH) as reported previously.

[2] = system: heterotypic interactions of the TLR2 TMD; assay: Heterotypic ToxR assay of TLR2 point mutants; format: cell-based, E. coli; settings: compared with native TLR2 TMD (Fig. 7B)
Description: To investigate if these residues were involved in the homotypic or heterotypic interactions we performed site-directed mutagenesis at key positions in the TLR2 TMD – Gly593Val, Ala597Val, and Cys609Ile – and tested these mutants in both homotypic and heterotypic ToxR assays.
Figure 7 Toll-like Receptor 2 Interaction Interface Studied by Mutagenesis. TLR2 residues were mutated to study effects on homotypic and heterotypic interactions using the ToxR assay. These mutations were at positions identified in the sequence as likely interaction locations. (A) Homotypic interactions of point mutations show no difference in interaction potential from wild-type TLR2 TMD. (B) Heterotypic interactions of point mutations show the potential importance of both the Ala597 and Cys609 positions for heterotypic interactions. […]
For heterotypic interactions one plasmid containing a functional ToxR domain (200 ng) and a second plasmid containing a non-functional ToxR* domain (200 ng) were co-transformed into chemically competent FHK12 E. coli (400 µL) by incubating on ice for 30 min, heat shock at 42°C for 90 s, incubation on ice for 2 min, and addition of SOC media (1600 µL) followed by incubation with shaking for 1 h at 37°C. […] Analysis of activity was monitored as described in homotypic ToxR assays. […]

[3] = molecular target: B3; assay: dominant-negative ToxR reporter assay; heterotypic; one TMD with functional ToxR (dominant phenotype) and one with non-functional ToxR* (negative phenotype) co-expressed in E. coli FHK12; interaction read as reduction of β-galactosidase signal; normalised to poly-Leu* and to expression levels; settings: partners not purified
[4] = molecular target: B2; assay: as above; settings: partners not purified
[5] = molecular target: B4; assay: as above; settings: partners not purified
[6] = molecular target: T1, TLR5 transmembrane domain (ToxR chimera); assay: heterotypic ToxR assay; settings: chain shown with the change; competitor TLR5* (nonfunctional ToxR* chimera); PolyLeu* = 1.0; lower signal = more ToxR inhibition = more interaction; parent: est. 0.53; read off a plot
T1 chain: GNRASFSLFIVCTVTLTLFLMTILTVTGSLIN

[7] = molecular target: T2, TLR6 transmembrane domain (ToxR chimera); assay: heterotypic ToxR assay; settings: chain shown with the change; competitor TLR6* (nonfunctional ToxR* chimera); PolyLeu* = 1.0; lower signal = more ToxR inhibition = more interaction; parent: est. 0.24; read off a plot
T2 chain: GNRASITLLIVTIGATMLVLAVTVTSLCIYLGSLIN

[8] = molecular target: T3, TLR10 transmembrane domain (ToxR chimera); assay: heterotypic ToxR assay; settings: chain shown with the change; competitor TLR10* (nonfunctional ToxR* chimera); PolyLeu* = 1.0; lower signal = more ToxR inhibition = more interaction; parent: est. 0.41; read off a plot
T3 chain: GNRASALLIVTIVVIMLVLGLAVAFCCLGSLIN

[9] = molecular target: T4, TLR1 transmembrane domain (ToxR chimera); assay: heterotypic ToxR assay; settings: chain shown with the change; competitor TLR1* (nonfunctional ToxR* chimera); PolyLeu* = 1.0; lower signal = more ToxR inhibition = more interaction; parent: est. 0.47; read off a plot
T4 chain: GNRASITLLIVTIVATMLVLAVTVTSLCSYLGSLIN

[10] = molecular target: T5, TLR2 transmembrane domain (ToxR chimera); assay: heterotypic ToxR assay; settings: chain shown with the change; competitor TLR2* (nonfunctional ToxR* chimera); PolyLeu* = 1.0; lower signal = more ToxR inhibition = more interaction; parent: est. 0.42; read off a plot
T5 chain: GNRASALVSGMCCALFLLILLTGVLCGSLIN

[11] = molecular target: T6, TLR4 transmembrane domain (ToxR chimera); assay: heterotypic ToxR assay; settings: chain shown with the change; competitor TLR4* (nonfunctional ToxR* chimera); PolyLeu* = 1.0; lower signal = more ToxR inhibition = more interaction; parent: est. 0.90; read off a plot
T6 chain: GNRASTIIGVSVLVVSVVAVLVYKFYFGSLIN

[12] = molecular target: T7, TLR2 transmembrane domain A597V (ToxR chimera), O60603; assay: homotypic ToxR assay; settings: chain shown with the change; higher signal = more homotypic TMD association; parent: est. 1.0; read off a plot
T7 chain: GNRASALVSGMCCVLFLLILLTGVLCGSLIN

For “TLR2 A597V: TLR2 TMD ToxR construct with point mutation Ala597Val (GNRASALVSGMCCVLFLLILLTGVLCGSLIN; cysteine pairing not given here; also: fused to ToxR activation domain and maltose binding protein, ends not given here)”, the “Effect of TLR2 point mutation on homotypic interaction” value [1] was “no mutation demonstrated significant difference from the wild type TLR2 TMD” and the “Effect of TLR2 point mutation on heterotypic interactions” value [2] was “capable of reducing the ToxR inhibition demonstrated by the native TLR2 TMD”.

In the case of “TLR2 C609I: TLR2 TMD ToxR construct with point mutation Cys609Ile (GNRASALVSGMCCALFLLILLTGVLIGSLIN; cysteine pairing not given here; also: fused to ToxR activation domain and maltose binding protein, ends not given here)”, the “Effect of TLR2 point mutation on homotypic interaction” value [1] is reported as “no mutation demonstrated significant difference from the wild type TLR2 TMD” and the “Effect of TLR2 point mutation on heterotypic interactions” value [2] is reported as “capable of reducing the ToxR inhibition demonstrated by the native TLR2 TMD”.

B1: TLR10 transmembrane domain (ToxR chimera) (domain or fragment, human)
chain: GNRASALLIVTIVVIMLVLGLAVAFCCLGSLIN
notes: flank encoded by the reading frame of the plasmid construct; Toll-like receptor 10 transmembrane domain, human, as identified by hydrophobic analysis; One molecule for the ToxR and the ToxR* form of this TMD; also called TLR10 TMD; source: E. coli FHK12, transformed with pTox7 or pTox6 plasmid, in the cells' membrane
In the case of B1, the “reduction in signal from the homotypic interaction” value (shortened to “reduction in signal”) [3] is reported as over 60%, the “reduction in signal” value [4] is reported as over 60% and the “reduction in signal” value [5] is reported as over 60%.

B2 was tested, and the “reduction in signal” value [3] was over 60% and the “reduction in signal” value [5] was over 60%.

For B3, the “reduction in signal” value [4] was over 60% and the “reduction in signal” value [5] was over 60%.

GNRASALVSGMCCVLFLLILLTGVLCGSLIN [TLR2 transmembrane domain (ToxR chimera) A597V] showed a response (normalized Miller units) [6] of 1, a response (normalized Miller units) [7] of 0.82 and a response (normalized Miller units) [8] of 1.2. It also gave a response (normalized Miller units) [9] of 1, a response (normalized Miller units) [10] of 0.8 and a response (normalized Miller units) [11] of 1.1. It also gave a response (normalized Miller units) [12] of 1.

For GNRASALVSVMCCALFLLILLTGVLCGSLIN [TLR2 transmembrane domain (ToxR chimera) G593V], the response (normalized Miller units) [6] was 0.48, the response (normalized Miller units) [7] was 0.54 and the response (normalized Miller units) [8] was 0.5. It also gave a response (normalized Miller units) [9] of 0.58, a response (normalized Miller units) [10] of 0.44 and a response (normalized Miller units) [11] of 0.95.

B4 was tested, and the “reduction in signal” value [3] was over 60% and the “reduction in signal” value [4] was over 60%.
